Results as given in paper PMC13503762 (Nature Communications, 2026).

Target: SARS-CoV-2 M protein (purified, in LMNG/CHS detergent) (SARS-CoV-2, UniProt P0DTC5)
Test: cryo-EM structure
Conditions: both partners purified

B1: short conformation Fab (scFab) (Fab, V domains shown)
VH: EVQLQQSGPELVKPGASMKISCKTSGYSFTGYTMNWVKQSHGKNLEWIGLINPYNGDTSYNQKFKGKATLTVDKSSSTAYMELLSLTSEDSAVYYCEVINTYWGQGTLVTVSA
VL: DIVMTQSPASLAVSLGQRATISCKASQSIDYDGDNYMNWYQQKPGQPPKLLIYTTSNLESGIPARFSGSGSGTDFTLNIHPVEEGDAATYYCQQNNEDPYTFGGGTKLEIK
notes: also called short conformation-selective Fab; Fab targeting M_(short)
binding result: binds
